Results: patent publication US20250197482A1

How the values were obtained:
[1] = target: HIV-1 Env of strain WITO.33 (Env-pseudotyped virus) (HIV-1)
[2] = target: CAP256 wk34c80 (HIV-1)
[3] = target: CAP256 soluble Env trimer (clade C), stabilized in the prefusion-closed conformation (HIV-1); test: ELISA, lectin-captured trimer, expression supernatant, single point, OD 450 nm
[4] = target: K169V variant of CAP256 soluble Env trimer (HIV-1); test: as above
[5] = target: JRFL soluble Env trimer (clade B), stabilized in the prefusion-closed conformation (HIV-1); test: as above
[6] = target: 426C-WITO soluble Env trimer (clade B), stabilized in the prefusion-closed conformation (HIV-1); test: ELISA, lectin-captured trimer, expression supernatant, single point, OD 450 nm, column 426c-WITO-degly3

VRC01 (antibody) showed a % neutralization, single point, Env-pseudotyped virus on TZM-bl [1] of 0%, a % neutralization, single point, Env-pseudotyped virus on TZM-bl [2] of 100% and an ELISA binding [3] of 2.31. For the same substance, the ELISA binding [4] was 2.65, the ELISA binding [5] was 2.29 and the ELISA binding [6] was 2.53.
